Where two headings read alike, the source gives them in different places. Values belong to the binder of their own block, whether it stands above or below them.
Columns and labels:
[1] = target: T1, human long form TSLP expressed on cell membrane; assay: FACS on cells expressing the membrane human long-form TSLP fusion protein, MFI; unit taken from the concentration axis
T1 construct: also called membrane long-form huTSLP fusion protein; membrane long-form TSLP fusion protein

[2] = target: T1, human long form TSLP expressed on cell …; assay: as above; remark: listed apart in the source
[3] = target: T1, human long form TSLP expressed on cell …; assay: as above; remark: listed apart in the source
[4] = target: T2, human long-form TSLP protein (Acro, tsp-h5255 or tsp-h52ha) (human, UniProt Q969D9 29-159); assay: ELISA on coated human long-form TSLP, OD450; unit taken from the concentration axis
T2 construct: If it was tsp-h52ha, this is the same molecule as m12 (His-tagged); also called human TSLP protein

[5] = target: T1, human long form TSLP expressed on cell …; assay: FACS on cells expressing the membrane human long-form TSLP fusion protein, MFI; unit taken from the concentration axis; remark: listed apart in the source
[6] = target: T1, human long form TSLP expressed on cell …; assay: FACS on cells expressing the membrane human long-form TSLP fusion protein, MFI; rising binding curve, but the table column is headed IC50; unit taken from the concentration axis
[7] = target: T3, cynomolgus long-form TSLP protein (ACRO, tsp-c52h8) (cynomolgus monkey, UniProt A0A7N9CAT7 29-159); assay: ELISA on coated cynomolgus long-form TSLP, OD450; ambiguous fit of a flat curve (Bottom 0.06295, Top ~ 145.1), see non_binding; unit taken from the concentration axis
T3 construct: also called monkey long-form TSLP; Cyno TSLP
T3 sequence: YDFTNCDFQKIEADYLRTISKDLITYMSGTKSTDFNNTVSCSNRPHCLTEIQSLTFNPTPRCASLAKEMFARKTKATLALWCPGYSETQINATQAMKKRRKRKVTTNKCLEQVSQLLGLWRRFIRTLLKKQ

[8] = target: T4, membrane short-form huTSLP fusion protein (human); assay: FACS on cells expressing membrane short-form huTSLP, MFI; ambiguous fit of a flat curve (Bottom 895.5, Top 876.2), see non_binding; unit taken from the concentration axis
T4 construct: also called human short form TSLP expressed on cell membrane

[9] = target: T2, human long-form TSLP protein (Acro, …); assay: BLI (Gator, HFC probe), antibody loaded at 10 ug/ml, TSLP at 50 to 1.56 nM
[10] = target: T5, mouse long-form TSLP protein (ACRO, tsp-m52h8) (mouse, UniProt Q9JIE6 20-140); assay: ELISA on coated mouse long-form TSLP
T5 construct: Bought; also called mouse TSLP
T5 sequence (looked up): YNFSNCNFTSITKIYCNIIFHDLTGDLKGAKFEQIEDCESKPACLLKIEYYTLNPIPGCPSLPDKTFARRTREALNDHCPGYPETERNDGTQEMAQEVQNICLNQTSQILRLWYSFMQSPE

[11] = target: T2, human long-form TSLP protein (Acro, …); assay: ELISA on coated human long-form TSLP, OD450; unit taken from the concentration axis; remark: listed apart in the source
[12] = target: T2, human long-form TSLP protein (Acro, …); assay: as above; remark: listed apart in the source
[13] = target: T4, membrane short-form huTSLP fusion …; assay: FACS on cells expressing membrane short-form huTSLP, MFI; ambiguous fit of a flat curve (Bottom 712.4, Top 749.3), see non_binding; unit taken from the concentration axis
[14] = target: T3, cynomolgus long-form TSLP protein …; assay: ELISA on coated cynomolgus long-form TSLP, OD450; ambiguous fit of a flat curve (Bottom 0.06800, Top ~ 0.8608), see non_binding; unit taken from the concentration axis

T1 sequence (chain, as listed by the source): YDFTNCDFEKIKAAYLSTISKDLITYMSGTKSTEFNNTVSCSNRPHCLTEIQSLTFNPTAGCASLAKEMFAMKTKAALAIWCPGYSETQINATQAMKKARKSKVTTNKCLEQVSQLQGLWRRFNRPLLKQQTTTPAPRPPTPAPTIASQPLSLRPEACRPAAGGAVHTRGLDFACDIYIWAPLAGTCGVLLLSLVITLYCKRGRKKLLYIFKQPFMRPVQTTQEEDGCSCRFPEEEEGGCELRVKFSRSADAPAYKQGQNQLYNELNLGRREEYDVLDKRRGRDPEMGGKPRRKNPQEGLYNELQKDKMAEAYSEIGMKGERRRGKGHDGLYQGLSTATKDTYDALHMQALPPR
T2 sequence (Q969D9 29-159 R127A/R130A limits assumed): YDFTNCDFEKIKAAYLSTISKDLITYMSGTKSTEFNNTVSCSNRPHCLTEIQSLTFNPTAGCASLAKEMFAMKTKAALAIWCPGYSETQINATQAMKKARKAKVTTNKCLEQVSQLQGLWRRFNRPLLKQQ
T4 sequence (chain, as listed by the source limits assumed): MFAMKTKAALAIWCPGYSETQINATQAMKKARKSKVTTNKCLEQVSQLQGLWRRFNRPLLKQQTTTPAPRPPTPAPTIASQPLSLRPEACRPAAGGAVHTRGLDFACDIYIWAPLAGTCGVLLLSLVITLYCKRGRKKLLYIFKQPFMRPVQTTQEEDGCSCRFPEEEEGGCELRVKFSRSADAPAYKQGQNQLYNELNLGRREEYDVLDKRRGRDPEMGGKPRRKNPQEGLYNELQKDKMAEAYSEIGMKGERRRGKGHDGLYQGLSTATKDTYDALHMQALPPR

- EC50 [1]: 0.228 µg/mL
- EC50 [2]: 0.111 µg/mL
- EC50 [3]: 0.0953 µg/mL
- EC50 [4]: 0.0325 µg/mL
B1: Chi39H11 (antibody, human IgG2, V domains shown)
VH: QVQLQQSGAELVRPGSSVKISCKASGYAFSSYWMNWVKQRPGQGLEWIGQIFPGDGETNYNGKFKGKATLTADKSSSTAYMQLSSLTSEDSAVYFCARGGYVNFLYAMDYWGQGTSVTVSS
VL: EIVLTQSPALMAASPGEKVTITCSVSSSISSSNLHWYQQKSETSPKPWIYGTSTLASGVPVRFSGSGSGTSYSLTISSMEAEDAATYYCQQWSSYPLTFGAGTKLELK
notes: also called 39H11 chimeric antibody

- EC50 [5]: 0.173 µg/mL
- EC50 [6]: 0.403 µg/mL
B2: Chi35G12 (antibody, human IgG2, V domains shown)
VH: QVQLQQSGAELVRPGSSVKISCKSSGYAFSSYWMNWVKQRPGQGLEWIGQIFPGDGDTTYNGNFKGKTTLTADKSSNTAYMQLSSLTSEDSAVYFCARSGFDYGYFYAMDYWGQGTSVTVSS
VL: EIVLTQSPTLMAASPGEKVTITCSVSSSISSSNLHWYQQKSETSPKPWIFGTSNLASGVPVRFSGSGSGTSYSLTISNMEAEDAATYYCQQWSSYPLTFGAGTKLELK
notes: also called 35G12 chimeric antibody

- EC50 [2]: 0.129 µg/mL
B3: 39H11Z11 (antibody, human IgG2, V domains shown)
VH: QVQLVQSGAEVKKPGASVKVSCKASGYAFSSYWMNWVRQAPGQGLEWMGQIFPGDGETNYNGKFKGRVTMTRDTSTSTVYMELSSLRSEDTAVYYCARGGYVNFLYAMDYWGQGTTVTVSS
VL: EIVMTQSPATLSVSPGERATLSCSVSSSISSSNLHWYQQKPGQSPRPWIYGTSTLASGIPARFSGSGSGTEFTLTISSLQSEDFAVYYCQQWSSYPLTFGGGTKVEIK

- EC50 [5]: 0.174 µg/mL
B4: 35G12Z02 (antibody, human IgG2, V domains shown)
VH: EVQLVQSGAEVKKPGESLKISCKSSGYAFSSYWINWVRQMPGKGLEWMGQIFPGDGDTTYNGNFKGQVTISADKSISTAYLQWSSLKASDTAMYYCARSGFDYGYFYAMDYWGQGTTVTVSS
VL: EIVMTQSPATLSVSPGERATLSCSVSSSISSSNLHWYQQKPGQSPRPWIFGTSNLASGIPARFSGSGSGTEFTLTISSLQSEDFAVYYCQQWSSYPLTFGGGTKVEIK

- EC50 [7]: ~51.9 µg/mL
- EC50 [8]: ~0.384 µg/mL
- Kd [9]: 1.98 nM
- binding result [10]: no binding (tested: about 20 µg/mL)
- EC50 [11]: 0.206 µg/mL
- EC50 [12]: 0.122 µg/mL
B5: mAb35G12 (antibody)
heavy: QVQLVQSGAEVKKPGSSVKVSCKSSGYAFSSYWINWVRQAPGQGLEWMGQIFPGDGDTTYNGNFKGRVTITADKSTSTAYMELSSLRSEDTAVYYCARSGFDYGYFYAMDYWGQGTTVTVSSASTKGPSVFPLAPCSRSTSESTAALGCLVKDYFPEPVTVSWNSGALTSGVHTFPAVLQSSGLYSLSSVVTVPSSSLGTKTYTCNVDHKPSNTKVDKRVESKYGPPCPPCPAPEAAGGPSVFLFPPKPKDTLYITREPEVTCVVVDVSQEDPEVQFNWYVDGVEVHNAKTKPREEQFNSTYRVVSVLTVLHQDWLNGKEYKCKVSNKGLPSSIEKTISKAKGQPREPQVYTLPPSQEEMTKNQVSLTCLVKGFYPSDIAVEWESNGQPENNYKTTPPVLDSDGSFFLYSRLTVDKSRWQEGNVFSCSVMHEALHNHYTQKSLSLSLG
light: EIVMTQSPATLSVSPGERATLSCSVSSSISSSNLHWYQQKPGQSPRPWIFGTSNLASGIPARFSGSGSGTEFTLTISSLQSEDFAVYYCQQWSSYPLTFGGGTKVEIK
notes: not shown: human kappa light chain constant region ('its corresponding light chain vector')

- EC50 [5]: 0.158 µg/mL
B6: 35G12Z01 (antibody, human IgG2, V domains shown)
VH: QVQLVQSGAEVKKPGASVKVSCKSSGYAFSSYWMNWVRQAPGQGLEWMGQIFPGDGDTTYNGNFKGRVTMTRDTSTSTVYMELSSLRSEDTAVYYCARSGFDYGYFYAMDYWGQGTTVTVSS
VL: EIVMTQSPATLSVSPGERATLSCSVSSSISSSNLHWYQQKPGQSPRPWIFGTSNLASGIPARFSGSGSGTEFTLTISSLQSEDFAVYYCQQWSSYPLTFGGGTKVEIK

- Kd [9]: 2.1 nM
- EC50 [13]: ~0.134 µg/mL
- binding result [10]: no binding (tested: about 20 µg/mL)
- EC50 [11]: 0.153 µg/mL
- EC50 [12]: 0.149 µg/mL
- EC50 [14]: ~23.8 µg/mL
B7: mAb39H11 (antibody, IgG4)
heavy: QVQLVQSGAEVKKPGSSVKVSCKASGYAFSSYWMNWVRQAPGQGLEWMGQIFPGDGETNYNGKFKGRVTITADKSTSTAYMELSSLRSEDTAVYYCARGGYVNFLYAMDYWGQGTTVTVSSASTKGPSVFPLAPCSRSTSESTAALGCLVKDYFPEPVTVSWNSGALTSGVHTFPAVLQSSGLYSLSSVVTVPSSSLGTKTYTCNVDHKPSNTKVDKRVESKYGPPCPPCPAPEAAGGPSVFLFPPKPKDTLYITREPEVTCVVVDVSQEDPEVQFNWYVDGVEVHNAKTKPREEQFNSTYRVVSVLTVLHQDWLNGKEYKCKVSNKGLPSSIEKTISKAKGQPREPQVYTLPPSQEEMTKNQVSLTCLVKGFYPSDIAVEWESNGQPENNYKTTPPVLDSDGSFFLYSRLTVDKSRWQEGNVFSCSVMHEALHNHYTQKSLSLSLG
light: EIVMTQSPATLSVSPGERATLSCSVSSSISSSNLHWYQQKPGQSPRPWIYGTSTLASGIPARFSGSGSGTEFTLTISSLQSEDFAVYYCQQWSSYPLTFGGGTKVEIK
notes: as for B5

- EC50 [3]: 0.079 µg/mL
B8: 39H11Z07 (antibody, human IgG2, kappa)
heavy: QVQLVQSGAEVKKPGSSVKVSCKASGYAFSSYWMNWVRQAPGQGLEWMGQIFPGDGETNYNGKFKGRVTITADKSTSTAYMELSSLRSEDTAVYYCARGGYVNFLYAMDYWGQGTTVTVSSASTKGPSVFPLAPCSRSTSESTAALGCLVKDYFPEPVTVSWNSGALTSGVHTFPAVLQSSGLYSLSSVVTVPSSNFGTQTYTCNVDHKPSNTKVDKTVERKCCVECPPCPAPPVAGPSVFLFPPKPKDTLMISRTPEVTCVVVDVSHEDPEVQFNWYVDGVEVHNAKTKPREEQFNSTFRVVSVLTVVHQDWLNGKEYKCKVSNKGLPAPIEKTISKTKGQPREPQVYTLPPSREEMTKNQVSLTCLVKGFYPSDISVEWESNGQPENNYKTTPPMLDSDGSFFLYSKLTVDKSRWQQGNVFSCSVMHEALHNHYTQKSLSLSPGK
light: EIVMTQSPATLSVSPGERATLSCSVSSSISSSNLHWYQQKPGQSPRPWIYGTSTLASGIPARFSGSGSGTEFTLTISSLQSEDFAVYYCQQWSSYPLTFGGGTKVEIKRTVAAPSVFIFPPSDEQLKSGTASVVCLLNNFYPREAKVQWKVDNALQSGNSQESVTEQDSKDSTYSLSSTLTLSKADYEKHKVYACEVTHQGLSSPVTKSFNRGEC
notes: also called 39H11Z07-IgG2

- EC50 [5]: 0.159 µg/mL
B9: 35G12Z03 (antibody, human IgG2, kappa)
heavy: QVQLVQSGAEVKKPGSSVKVSCKSSGYAFSSYWINWVRQAPGQGLEWMGQIFPGDGDTTYNGNFKGRVTITADKSTSTAYMELSSLRSEDTAVYYCARSGFDYGYFYAMDYWGQGTTVTVSSASTKGPSVFPLAPCSRSTSESTAALGCLVKDYFPEPVTVSWNSGALTSGVHTFPAVLQSSGLYSLSSVVTVPSSNFGTQTYTCNVDHKPSNTKVDKTVERKCCVECPPCPAPPVAGPSVFLFPPKPKDTLMISRTPEVTCVVVDVSHEDPEVQFNWYVDGVEVHNAKTKPREEQFNSTFRVVSVLTVVHQDWLNGKEYKCKVSNKGLPAPIEKTISKTKGQPREPQVYTLPPSREEMTKNQVSLTCLVKGFYPSDISVEWESNGQPENNYKTTPPMLDSDGSFFLYSKLTVDKSRWQQGNVFSCSVMHEALHNHYTQKSLSLSPGK
light: EIVMTQSPATLSVSPGERATLSCSVSSSISSSNLHWYQQKPGQSPRPWIFGTSNLASGIPARFSGSGSGTEFTLTISSLQSEDFAVYYCQQWSSYPLTFGGGTKVEIKRTVAAPSVFIFPPSDEQLKSGTASVVCLLNNFYPREAKVQWKVDNALQSGNSQESVTEQDSKDSTYSLSSTLTLSKADYEKHKVYACEVTHQGLSSPVTKSFNRGEC
notes: also called 35G12Z03-IgG2

— patent US20250051433A1 (INMAGENE PTE, published 2025)
